Test results from patent US8722732B2, “Oligomer-calcimimetic conjugates and related compounds” (Nektar Therapeutics, priority 2009, dated 2014).
Like-named read-outs stand apart in the source and are kept apart here.

Assays:
[1] = rat, in vivo, 1 mg/kg; for AUCall / Clearance: iv
Procedure: (§1) Compound (15), Compound (20), Compound (16), Compound (21), Compound (24), Compound (25), Compound (28) and Compound (29), prepared in accordance with Examples, 5, 7, 6, 8, 9, 10, 11 and 12 respectively, were separately administered intravenously to four male rats to provide a cinacalcet equivalent dose of 1 mg/kg. Parent compound cinacalcet prepared in DMSO at 1 mg/kg was separately administrated intravenously to four male rats. For these cohorts, blood was collected at the following time points: 0 (predose), 2 minutes, 10 minutes, 1 hour, 2 hours, 4 hours, 8 hours, 24 hours, 48 hours and 72 hours following administration.

[2] = test system: plasma PTH (parathyroid hormone) levels; experiment: In vivo screen, PTH-lowering effects in normal rats (plasma PTH by ELISA); parameters: species or system rat
Procedure: PEG-Cinacalcet calcimmetic effects were studied in PTH (parathyroid hormone)-lowering experiments in normal rats. Male SD rats (˜350 g) were IV dosed with different compounds at 1 mg/kg or orally (“PO”) cinacalcet at 10 mg/kg. Plasma samples were collected and prepared at different timepoints (up to 72 hours) after drug administration. The plasma PTH levels were quantified by ELISA.

[3] = Hydrolysis of compounds in pH 7.4 PBS buffer at 37° C. (HPLC); assay type: physicochemical
Procedure: The solution was placed into ten different HPLC vials and the HPLC vials were put into a 37° C. incubator. The samples were analyzed by HPLC at different timepoints. When hydrolysis occurred, HPLC confirmed that cinacalcet was released unaltered.

[4] = dog, in vivo
Procedure: (§2) Briefly, cinacalcet hydrochloride was administered orally to three male beagle dogs to provide a cinacalcet equivalent dose of 2.0 mg/kg. […] For both the cohorts, blood was collected at the following time points: 0 (predose); 10 min, 1, 2, 4, 8, 24, 48, 72, 120 and 144 h.

[5] = test system: plasma PTH (parathyroid hormone) levels; experiment: In vivo screen, rat chronic renal insufficiency (CRI) model, 5/6 nephrectomy; conditions: 5/6 Nx rats, 6-8 weeks post surgery
From the text: The approach set forth in Example 14 is repeated except rats were surgically modified to mimic chronic renal insufficiency through the total removal of one kidney and ⅔ of the other kidney (a 5/6 nephrectomy or “5/6Nx”). […] Parathyroid hormone levels in normal rats are around 100 pg/ml and in 5/6 Nx rats they increase to 500-1000 pg/ml.

[6] = biological target: CYP2D6 (Homo sapiens, UniProt P10635); conditions: background statement; cited from earlier work
[7] = Hydrolysis / pharmacokinetics in an in vivo rat study (plasma concentration-time profiles); conditions: male, po, 10 mg/kg
Procedure: as §1

[8] = Hydrolysis / pharmacokinetics in an in vivo dog study; conditions: male, beagle, plasma, po, 10 mg/kg
Procedure: as §2

CYP2D6, sequence (P10635 whole entry): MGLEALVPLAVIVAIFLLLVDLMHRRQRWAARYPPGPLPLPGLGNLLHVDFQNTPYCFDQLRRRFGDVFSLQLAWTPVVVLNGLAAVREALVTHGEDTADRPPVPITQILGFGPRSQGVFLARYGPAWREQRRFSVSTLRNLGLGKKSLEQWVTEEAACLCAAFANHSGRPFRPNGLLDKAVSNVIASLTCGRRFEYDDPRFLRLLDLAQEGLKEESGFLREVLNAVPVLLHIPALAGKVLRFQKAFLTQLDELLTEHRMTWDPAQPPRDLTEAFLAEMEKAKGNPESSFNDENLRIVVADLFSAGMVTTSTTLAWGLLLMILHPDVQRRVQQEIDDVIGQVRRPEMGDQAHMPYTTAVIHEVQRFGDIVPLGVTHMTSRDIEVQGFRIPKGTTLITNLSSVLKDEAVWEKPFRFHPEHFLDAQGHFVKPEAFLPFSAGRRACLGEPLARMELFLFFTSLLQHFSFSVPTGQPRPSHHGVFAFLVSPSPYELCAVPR

Row | Molecule | PTH-lowering effect (in words) ([2]; IV, 1 mg/kg) | cinacalcet release after intravenous administration (in words) [1] | time for which release of cinacalcet continues following intravenous administration [1] | t1/2 in PBS [3] | time at which animal PTH levels return to baseline ([2]; IV, 1 mg/kg) | further results
1 | Four-arm-PEG20k-L-leucine-acyloxymethyl-carbamate-cinacalcet [Compound (21)] | significant PTH-lowering effects |  |  |  |  | AUCall [1]: 5730 ng·min/mL; Clearance [1]: 206 mL/min/kg
2 | mPEG10k-L-valine-acyloxymethyl-carbamate-cinacalcet [Compound (24)] | variable PTH-lowering effects | relatively significant amounts of cinacalcet release | 8 to 12 h | ~317 h | ~24 h | 
3 | Four-arm-PEG30k-L-leucine-acyloxymethyl-carbamate-cinacalcet [Compound (31)] |  |  |  |  |  | Cmax versus cinacalcet (in words) [4]: blunted; half-life versus cinacalcet (in words) [4]: increased; time up to which therapeutically relevant levels of cinacalcet are released ([4]; iv): up to 72 hours; AUCall ([4]; iv, 1 mg/kg): 176 ng·h/mL; Clearance ([4]; iv, 1 mg/kg): 43.33 mL/min/kg; T1/2 ([4]; iv, 1 mg/kg): 0.432 h; Vz(F) ([4]; iv, 1 mg/kg): 97.2 L/kg
4 | mPEG10k-L-leucine-acyloxymethyl-carbamate-cinacalcet [Compound (20)] | significant PTH-lowering effects |  |  | ~126 h |  | AUCall [1]: 11200 ng·min/mL; Clearance [1]: 100 mL/min/kg; PTH-lowering effect lasts up to ([2]; IV, 1 mg/kg): 24 to 48 h
5 | mPEG10k-L-isoleucine-acyloxymethyl-carbamate-cinacalcet [(36)] |  |  |  | ~470 h |  | 
6 | Four-arm-PEG20k-glycine-amide-cinacalcet [Compound (16)] |  |  |  |  |  | reduction of PTH levels (in words) [5]: PTH levels are not reduced as significantly as Compounds (25), (28), and (29)
7 | C[C@@H](NCCCc1cccc(C(F)(F)F)c1)c1cccc2ccccc12 [cinacalcet] |  |  |  |  |  | CYP2D6 inhibition [6]: inhibitor of CYP2D6; AUC [7]: 690 ng·h/mL; Cmax [7]: 97.4 ng/mL; half-life [7]: 2.98 h; PTH-lowering effect lasts up to ([2]; PO, 10 mg/kg): ~12 h; AUC [8]: 17.8 ng·h/mL; Cmax [8]: 6.01 ng/mL; Vd/F [8]: 294 L/kg; half-life [8]: 1.77 h
8 | Four-arm-PEG20k-D-valine-acyloxymethyl-carbamate-cinacalcet [Compound (29)] | variable PTH-lowering effects | relatively significant amounts of cinacalcet release | 8 to 12 h |  | ~24 h | 
9 | mPEG10k-D-valine-acyloxymethyl-carbamate-cinacalcet [Compound (28)] | variable PTH-lowering effects | relatively significant amounts of cinacalcet release | 8 to 12 h | ~208 h | ~24 h | 
10 | Four-arm-PEG20k-L-valine-acyloxymethyl-carbamate-cinacalcet [Compound (25)] | variable PTH-lowering effects | relatively significant amounts of cinacalcet release | 8 to 12 h |  | ~24 h | 
